Results on 9 molecules are retold here after US5218092A, “Modified granulocyte-colony stimulating factor polypeptide with added carbohydrate chains” (Kyowa Hakko Kogyo Co., Ltd., priority 1988, dated 1993).

One data set relates to thrombin. The note with it: cited from earlier work.
The test system of a further data set is fibrin. The note with it: cited from earlier work.
In the next data set the test system is plasminogen in blood. The note with it: in vivo; cited from earlier work.
For data set [1] the following is noted: cited from earlier work; for site of clearance: sialic acid-containing or after sialic acid elimination.
For data set [2] the following is noted: no carbohydrate chain; cited from earlier work.
The conditions of data set [3]: no carbohydrate chain; cited from earlier work. This is another data set of the same source.
The subject of the next data set is plasmin. The conditions noted are these: cited from earlier work.
The conditions of data set [4]: rat plasma and rat perfusate; cited from earlier work.
For another data set, the system named is chymotrypsin. Description: proteolysis susceptibility of hG-CSF and hG-CSF[ND28] produced in Escherichia coli. The format is in vitro ADME. From the text: Analysis of hG-CSF and the hG-CSF derivative hG-CSF[ND 28] […] On the basis of the above findings, it is estimated that, in hG-CSF[ND28], a portion close to the N terminus and a portion in the vicinity of the 144th (from the N terminus) amino acid are found on the polypeptide surface. Therefore, an attempt was made to add a carbohydrate chain to hG-CSF[ND28] on the 6th or 145th (from the N terminus) amino acid residue thereof. An hG-CSF[ND28] derivative which has a carbohydrate chain addition site on the 6th (from the N terminus) amino acid residue is hG-CSF[ND28N6] and a derivative which has a carbohydrate chain addition site on the 145th (from the N terminus) amino acid residue is hG-CSF[ND28N145]. In these cases, it is expected that the carbohydrate chain addition can result in development of protease resistance. Retardation of blood clearance can also be expected as a result of stabilization of the polypeptide.

Urokinase: in the data set with thrombin, the “conversion under the action of thrombin” value is “converted to an inactive form upon exposure to a protease called thrombin”. Also, the affinity for fibrin result in the data set on fibrin was “no affinity for fibrin”. In addition, the “systemic hyperfibrinolysis / bleeding tendency” value in the data set on plasminogen in blood is “causing systemic hyperfibrinolysis and leading to a bleeding tendency”. As for “hGM-CSF after sialic acid elimination: hGM-CSF after sialic acid elimination”, in data set [1] (after sialic acid elimination), the rate of clearance result was “increased rate of clearance”. The site of clearance entry in [1] is “undergoes clearance in the liver”. Take “hGM-CSF: human granulocyte macrophage colony stimulating factor (hGM-CSF)”: the “rate of clearance from the rat plasma” value in data set [1] (dependence on number of carbohydrate chains) is reported as “the rate of clearance from the rat plasma increases in proportion to the reduction in the number of carbohydrate chains”. For the molecule “human erythropoietin: human erythropoietin produced in Escherichia coli or enzymatically treated for carbohydrate chain elimination”, the activity in vitro entry in [2] was “shows activity in vitro”. In data set [3], the activity in vivo entry is “shows decreased activity in vivo” and the clearance entry is recorded as “undergoes rapid clearance”. Take “sialic acid-containing hGM-CSF: sialic acid-containing hGM-CSF”: the site of clearance entry in data set [1] was “undergoes clearance in the kidney”. Take streptokinase: thrombolytic agent: in the data set with fibrin, the affinity for fibrin result is reported as “no affinity for fibrin”. Moreover, the “systemic hyperfibrinolysis / bleeding tendency” value in the data set on plasminogen in blood was “causing systemic hyperfibrinolysis and leading to a bleeding tendency”. Regarding “t-PA: tissue plasminogen activator (t-PA)”, the “conversion under the action of plasmin” value in the data set on plasmin is on record as “Plasmin converts the single-chainform to the double-chain form”. The affinity for fibrin result in the data set with fibrin is “have affinity for fibrin”.

B1: α1 -acid glycoproteins: α1 -acid glycoproteins differing in carbohydrate structure as biosynthesized in a rat liver primary culture system (protein, UniProt P02764 19-205, looked up)
Alpha-1-acid glycoprotein: QNPEPANITLGIPITNETLKWLSDKWFYMGAAFRDPVFKQAVQTIQTEYFYLTPNLINDTIELREFQTTDDQCVYNFTHLGVQRENGTLSKCAGAVKIFAHLIVLKKHGTFMLAFNLTDENRGLSFYAKKPDLSPELRKIFQQAVKDVGMDESEIVFVDWTKDKCSEQQKQQLELEKETKKETKKDP
modifications: glycoform mixture
notes: α1 -acid glycoproteins differing in carbohydrate structure as biosynthesized in a rat liver primary culture system
For the molecule B1, in [4], the “order of clearance rates” value is given as “high mannose type>carbohydrate chain-deficient type>hybrid type>complex type (natural form)”.

B2: hG-CSF: human granulocyte colony stimulating factor (hG-CSF) (protein, UniProt P09919 31-207, looked up)
Granulocyte …: TPLGPASSLPQSFLLKCLEQVRKIQGDGAALQEKLVSECATYKLCHPEELVLLGHSLGIPWAPLSSCPSQALQLAGCLSQLHSGLFLYQGLLQALEGISPELGPTLDTLQLDVADFATTIWQQMEELGMAPALQPTQGAMPAFASAFQRRAGGVLVASHLQSFLEVSYRVLRHLAQP
On to B2, for which, in the data set on chymotrypsin, the “susceptibility to proteolysis by chymotrypsin behind 144th amino acid Phe” value was “susceptible to proteolysis by chymotrypsin”.
